In patent US20190233517A1:

Tests used:
Settings in all cases: remark: other sources report otherwise
HER3, P21860 [1] = experiment: kinetic binding data, method not stated
HER3, P21860 [2] = experiment: kinetic binding data, method not stated; remark: listed apart in the source
Her3-his, P21860 = experiment: SPR

B1: Her3 antibody patritumab (antibody, V domains shown)
VH: QVQLQQWGAGLLKPSETLSLTCAVYGGSFSGYYWSWIRQPPGKGLEWIGEINHSGSTNYNPSLKSRVTISVETSKNQFSLKLSSVTAADTAVYYCARDKWTWYFDLWGRGTLVTVSS
VL: not shown
Q: What does the source list for B1?
A: Kd (HER3, P21860 [1]): 0.0302 nM; Kd (HER3, P21860 [2]): 0.9 nM; Kd (Her3-his, P21860): 1.28 nM
